Data published in publication PMC3859963 (Molecular cancer therapeutics, 2013).
Square brackets hold non-standard residues; d marks the D form. Ends that are not written are not given here.

Biological target: CD44s (UniProt P16070-12 21-361)
Test: flow cytometry on cells

fold increase of binding versus vector only cells: 1.5 fold
Binder: [dK][dI][dK][dM][dV][dI][dS][dW][dK]G (also: 5(6)-FAM label, position not given here) [5(6)-FAM-HYD1]
